From US20130336893A1 (Sanofi, published 2013)
*1 amine or outer side, *2 acyl side, *3 side chain or, on linkers, in order; H or OH if unused. Where no end group is shown, it is not given here. Side-chain parts run from the residue outwards. [ ]: non-standard residue; d: D form. The star is where a group is joined. γGlu = O=C(O)[C@H](CCC(=O)[*:2])N[*:1]; Palmitoyl = CCCCCCCCCCCCCCCC(=O)*

B1: SEQ ID NO: (79) (peptide)
peptide: H[dS]QGTFTSDLSKQMESRAAQLFIEWLKAGGPSSGAPPPSK([γGlu-Palmitoyl])-NH2
modifications: N-terminus assumed
SMILES: CCCCCCCCCCCCCCCC(=O)N[C@@H](CCC(=O)NCCCC[C@H](NC(=O)[C@H](CO)NC(=O)[C@@H]1CCCN1C(=O)[C@@H]1CCCN1C(=O)[C@@H]1CCCN1C(=O)[C@H](C)NC(=O)CNC(=O)[C@H](CO)NC(=O)[C@H](CO)NC(=O)[C@@H]1CCCN1C(=O)CNC(=O)CNC(=O)[C@H](C)NC(=O)[C@H](CCCCN)NC(=O)[C@H](CC(C)C)NC(=O)[C@H](Cc1c[nH]c2ccccc12)NC(=O)[C@H](CCC(=O)O)NC(=O)[C@@H](NC(=O)[C@H](Cc1ccccc1)NC(=O)[C@H](CC(C)C)NC(=O)[C@H](CCC(N)=O)NC(=O)[C@H](C)NC(=O)[C@H](C)NC(=O)[C@H](CCCNC(=N)N)NC(=O)[C@H](CO)NC(=O)[C@H](CCC(=O)O)NC(=O)[C@H](CCSC)NC(=O)[C@H](CCC(N)=O)NC(=O)[C@H](CCCCN)NC(=O)[C@H](CO)NC(=O)[C@H](CC(C)C)NC(=O)[C@H](CC(=O)O)NC(=O)[C@H](CO)NC(=O)[C@@H](NC(=O)[C@H](Cc1ccccc1)NC(=O)[C@@H](NC(=O)CNC(=O)[C@H](CCC(N)=O)NC(=O)[C@@H](CO)NC(=O)[C@@H](N)Cc1c[nH]cn1)[C@@H](C)O)[C@@H](C)O)[C@@H](C)CC)C(N)=O)C(=O)O
B2: SEQ ID NO: (78) (peptide)
peptide: H[dS]QGTFTSDLSKQMESRRAQDFIEWLKSGGPSSGAPPPSK([γGlu-Palmitoyl])-NH2
modifications: N-terminus assumed
SMILES: CCCCCCCCCCCCCCCC(=O)N[C@@H](CCC(=O)NCCCC[C@H](NC(=O)[C@H](CO)NC(=O)[C@@H]1CCCN1C(=O)[C@@H]1CCCN1C(=O)[C@@H]1CCCN1C(=O)[C@H](C)NC(=O)CNC(=O)[C@H](CO)NC(=O)[C@H](CO)NC(=O)[C@@H]1CCCN1C(=O)CNC(=O)CNC(=O)[C@H](CO)NC(=O)[C@H](CCCCN)NC(=O)[C@H](CC(C)C)NC(=O)[C@H](Cc1c[nH]c2ccccc12)NC(=O)[C@H](CCC(=O)O)NC(=O)[C@@H](NC(=O)[C@H](Cc1ccccc1)NC(=O)[C@H](CC(=O)O)NC(=O)[C@H](CCC(N)=O)NC(=O)[C@H](C)NC(=O)[C@H](CCCNC(=N)N)NC(=O)[C@H](CCCNC(=N)N)NC(=O)[C@H](CO)NC(=O)[C@H](CCC(=O)O)NC(=O)[C@H](CCSC)NC(=O)[C@H](CCC(N)=O)NC(=O)[C@H](CCCCN)NC(=O)[C@H](CO)NC(=O)[C@H](CC(C)C)NC(=O)[C@H](CC(=O)O)NC(=O)[C@H](CO)NC(=O)[C@@H](NC(=O)[C@H](Cc1ccccc1)NC(=O)[C@@H](NC(=O)CNC(=O)[C@H](CCC(N)=O)NC(=O)[C@@H](CO)NC(=O)[C@@H](N)Cc1c[nH]cn1)[C@@H](C)O)[C@@H](C)O)[C@@H](C)CC)C(N)=O)C(=O)O

These binders were tested against human glucagon receptor (human, UniProt P47871 26-477) (assay: cell-based or functional assay).
human glucagon receptor, sequence (P47871 26-477): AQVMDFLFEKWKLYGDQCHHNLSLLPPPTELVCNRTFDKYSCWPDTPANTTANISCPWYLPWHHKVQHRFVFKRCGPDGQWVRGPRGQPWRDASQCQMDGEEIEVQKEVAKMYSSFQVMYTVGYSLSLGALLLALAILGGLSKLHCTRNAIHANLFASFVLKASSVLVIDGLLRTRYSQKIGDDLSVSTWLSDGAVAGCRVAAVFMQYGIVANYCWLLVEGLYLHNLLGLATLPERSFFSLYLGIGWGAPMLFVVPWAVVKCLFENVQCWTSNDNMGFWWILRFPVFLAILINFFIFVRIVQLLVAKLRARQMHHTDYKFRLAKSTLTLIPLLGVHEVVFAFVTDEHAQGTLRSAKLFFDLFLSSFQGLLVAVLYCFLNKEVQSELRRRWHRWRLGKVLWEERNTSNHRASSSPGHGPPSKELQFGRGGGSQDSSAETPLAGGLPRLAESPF

First: B1
Second: B2
The “EC50 hGlucagonR (cAMP formation)” value of the first is 11-fold higher: 195 pM for the first, 18.1 pM for the second.

HSQGTFTSDLSKQMDERRAQDFIEWLKNGGPSSGAPPPS-NH2 [SEQ ID NO: (5)] was tested, and the “EC50 hGlucagonR (cAMP formation)” value was 67 pM.

These binders were tested against human GLP-1 receptor (human, UniProt P43220 24-463) (assay: cell-based or functional assay).

B1 and B2 are within 1.5-fold of each other in “EC50 hGLP-1R (cAMP formation)” value: 3.7 pM for the first, 4.2 pM for the second.

For HSQGTFTSDLSKQMDERRAQDFIEWLKNGGPSSGAPPPS-NH2 [SEQ ID NO: (5)], the “EC50 hGLP-1R (cAMP formation)” value was 16.6 pM.
